Molecular target: Bovine Hsc70 (1–554) (bovine, UniProt P19120 1-554)
Assay: co-sedimentation

Chain of Bovine Hsc70 (1–554) (P19120 1-554): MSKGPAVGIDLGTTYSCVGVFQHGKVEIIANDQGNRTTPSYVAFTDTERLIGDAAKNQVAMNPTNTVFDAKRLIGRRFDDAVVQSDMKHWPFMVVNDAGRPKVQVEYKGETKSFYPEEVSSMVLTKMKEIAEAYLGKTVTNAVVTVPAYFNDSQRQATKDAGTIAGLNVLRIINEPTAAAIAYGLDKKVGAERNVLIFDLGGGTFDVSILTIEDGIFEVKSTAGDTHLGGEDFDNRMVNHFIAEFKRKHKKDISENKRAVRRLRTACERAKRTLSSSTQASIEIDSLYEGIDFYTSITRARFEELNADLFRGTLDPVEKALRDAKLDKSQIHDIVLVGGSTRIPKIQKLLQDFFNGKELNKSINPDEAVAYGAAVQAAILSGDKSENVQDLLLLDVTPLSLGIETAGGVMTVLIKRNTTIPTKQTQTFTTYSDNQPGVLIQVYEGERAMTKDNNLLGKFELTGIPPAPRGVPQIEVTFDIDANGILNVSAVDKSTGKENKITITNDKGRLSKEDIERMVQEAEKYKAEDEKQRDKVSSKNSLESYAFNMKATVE

binding result: binds
B1: Bovine auxilin (547–910) (domain or fragment, UniProt Q27974 547-910, looked up)
chain: PSGPTSTQSTPRRSATSTSASPTLRVGEGATFDPFGAPSKPSGQDLLGSFLNTASASSDPFLQPTRSPSPTVHASSTPAVNIQPDVSGAWDWHTKPGGFGMGSKSAATSPTGSSHGTPTHQNKPQTLDPFADLGTLGGSSFASKPSTPTGLGGGFPPLSSPQKASPQPMGGGWQQGGGYNWQQTQSKPQSSMPHSSPQNRPNYNVSFSSMPGGQNERGKAAANLEGKQKAADFEDLLSGQGFNAHKDKKGPRTIAEMRKEEMAKEMDPEKLKILEWIEGKERNIRALLSTMHTVLWAGETKWKPVGMADLVTPEQVKKVYRKAVLVVHPDKATGQPYEQYAKMIFMELNDAWSEFENQGQKPLY

Reference: PMC2830701 (The EMBO Journal, 2009)
